Here are results for 54 variants from the RNAGym collection of RNA variant scans (doi:10.7554/elife.80360).

Sequences and labels used below:
B1: Twister Ribozyme (parent)
chain: AACACUGCCAAUGCCGGUCCCAAGCCCGGAUAAAAGUGGAGGGGGCGG

This data set covers variants of B1. In words: self-cleavage, relative activity (ratio to wild type); higher = more cleavage; co-transcriptional.
For the variant AACACUGCCAAUGCCGGUCCAAAGGCCGGAUAAAAGUGGAGGGGGCGG [C21A C25G], the self-cleavage is 0.0507. To AACACUGCCAAUGCCGGUCCCAAGCCCGGAUAAAAGGGGAGGGGGCGG [U37G] belongs 0.861.

As to AACACUUCCAAAGCCGGUCCCAAGCCCGGAUAAAAGUGGAGGGGGCGG [G7U U12A], the self-cleavage was found to be 0.0775.

As to UACACUGCCAAUGCUGGUCCCAAGCCCGGAUAAAAGUGGAGGGGGCGG [A1U C15U], the self-cleavage was 0.0337. The same measure for AACACUGCCAAUGCCGGUCCCAAGCCCGGAUAAAAGUGGACGGGGGGG [G41C C46G]: 0.286; for AACACUGCCAACGCCGGUCCCAAGCCCGGAUAAAAGAGGAGGGGGCGG [U12C U37A]: 0.747.

AACACUGCCAAUGCCGGUCCCCAGCCCGGAUAAAAGUGGAGGGGGAGG [A22C C46A]: the self-cleavage was 1.02. The same measure for AACACUGCCAAUGCCGGUCCCAAGCCCGGAUAAAAGUGGAGCGGGCGG [G42C]: 0.622; for AACACUGCCAAUACCGGUCCCAAGUCCGGAUAAAAGUGGAGGGGGCGG [G13A C25U]: 0.387.

As to AACACUGCCAAUGCCGGUCCCAACCCCGCAUAAAAGUGGAGGGGGCGG [G24C G29C], the self-cleavage was 0.104. The same measure for AACACUGCCAAUUCCGGUCGCAAGCCCGGAUAAAAGUGGAGGGGGCGG [G13U C20G]: 0.1; for AACACUGACAAUGCCGGUCCCAAGCCCGGAUAAAAGUGGAGGGGGCAG [C8A G47A]: 0.26; for AACACUGCCAUUGCCGGUCCCAAGCCCGGAUAAAAGUGAAGGGGGCGG [A11U G39A]: 0.63. With AUCACUGCCAAUGCCGGUCCCAUGCCCGGAUAAAAGUGGAGGGGGCGG [A2U A23U], the self-cleavage was found to be 0.106. To AACACUGCCAAUGCCGGACCCAAGCACGGAUAAAAGUGGAGGGGGCGG [U18A C26A] belongs 0.313; to AUCACCGCCAAUGCCGGUCCCAAGCCCGGAUAAAAGUGGAGGGGGCGG [A2U U6C], 0.0754; to AACACUGCCAAUGGCGGUCCCAAGCCCGGAUAAAAGUGGAUGGGGCGG [C14G G41U], 0.111. Regarding AACACUGCCCAUGCCGGUCCCAAGCCCGGAUAAAAGUGGAGCGGGCGG [A10C G42C], the self-cleavage turned out to be 0.345. The same measure for AACACUGCCAAUGCCGGUCCCAAGCCCGGAUCAAAGUGGAGGGGUCGG [A32C G45U]: 0.758. The same measure for AACACUGCCAAUGCCGGUCCCAGGCCCGGAUAAAAGUGGAGGGGUCGG [A23G G45U]: 0.158; for AACACUGCCAAUGCCGGUCCCAAGCCCGGUUAAAAGUGGGGGGGGCGG [A30U A40G]: 0.165. The same measure for AACACUGCCAAUGCCAGUCCCAAGCCCGGAUAAAAGUGGAGGGGGCGG [G16A]: 1.03; for CACACUGCCAAUGCCGGUCCCUAGCCCGGAUAAAAGUGGAGGGGGCGG [A1C A22U]: 0.14. With AACACUGCCAAUGCCGGUCCCAAUCCCGGAUAAAAGUGGAGAGGGCGG [G24U G42A], the self-cleavage is 0.0906. The same measure for AACAUUGCCAAUGCCGGUCCCAAGCCCGGAUAAAUGUGGAGGGGGCGG [C5U A35U]: 0.91; for AACACUGCCAAUGCAGGUCCCAAGCCCGGAUAUAAGUGGAGGGGGCGG [C15A A33U]: 0.541. As for AACACUGCCAAUGCCGGUCCCAAGCCCCGAUAAAAGUGGAGCGGGCGG [G28C G42C], the self-cleavage stood at 0.296. The same measure for AACCCUGCCAAUGCCGGUCCCACGCCCGGAUAAAAGUGGAGGGGGCGG [A4C A23C]: 0.0177; for AACACUGCCAAUGCCGGUCCCCAGGCCGGAUAAAAGUGGAGGGGGCGG [A22C C25G]: 0.222.

Turning to AACACUGCAAAUGCCGGUCCCAAGCCCGGAUAAAAGUAGAGGGGGCGG [C9A G38A], the self-cleavage is 0.393. To AACACUGUCAAUGCCGAUCCCAAGCCCGGAUAAAAGUGGAGGGGGCGG [C8U G17A] belongs 0.119; to AACACUGCCAAUGCAGGUCCCAAGCCCGGAUAACAGUGGAGGGGGCGG [C15A A34C], 0.156; to AACACUGCCAAUGCCGGUCCCAAGCCCGCUUAAAAGUGGAGGGGGCGG [G29C A30U], 1.1. The same measure for AACACUGCCAAUGCCGGUCCCAAGCCCGGGUAAAAGUGGAGGGGGAGG [A30G C46A]: 0.763. To AACACUCCCAAUGCCGGUCCCAAGCCCGGCUAAAAGUGGAGGGGGCGG [G7C A30C] belongs 0.0728. For AACACUGUCUAUGCCGGUCCCAAGCCCGGAUAAAAGUGGAGGGGGCGG [C8U A10U], the self-cleavage was found to be 0.582. On to AACACUGCCAAUGCCGGUCCCAAGCCCGGCUAAAAGUGGAGGGGCCGG [A30C G45C], for which the self-cleavage stood at 0.266. The same measure for AACUCUGCCAAUGCCGGUCCCAAGCCCGGAUAAAAAUGGAGGGGGCGG [A4U G36A]: 0.056. The same measure for AACACAGCCAAUGCCGGUCCCAAGCCCCGAUAAAAGUGGAGGGGGCGG [U6A G28C]: 0.524; for AACACUGACAAUGCCGGUCCCAAGCCCGGAUAAAAGUGGAGGGGGAGG [C8A C46A]: 0.167; for AACACUGCGAAUGACGGUCCCAAGCCCGGAUAAAAGUGGAGGGGGCGG [C9G C14A]: 0.536. As to AACACUCCCAAUGCCGGUCCCAAGCCCGAAUAAAAGUGGAGGGGGCGG [G7C G29A], the self-cleavage is 0.0857. To AACACUGCCAAUGCCGGUCCCAAGCCCGGAUAAAAGUACAGGGGGCGG [G38A G39C] belongs 0.175; to AACACUGCCAAUGCCGGUCCCAAGCCCGGAUAAACGUGAAGGGGGCGG [A35C G39A], 0.221; to AACACUGCCAAUGCCGGUCCCAAGCCCGGAUAUAAGUGGAGGGGGCUG [A33U G47U], 0.81. The same measure for AACACUGCCAAUGCCGGUCCCAAGCCCGGGUAAAAGGGGAGGGGGCGG [A30G U37G]: 0.92; for AACACUGCCAAUGCCGGUCCCAAUCCCGGAUAAACGUGGAGGGGGCGG [G24U A35C]: 0.133; for AACCCUGCCAAUGCCGGUCCCAAGCCCCGAUAAAAGUGGAGGGGGCGG [A4C G28C]: 0.0895. The same measure for ACCACUGCCAAUGCCGGUCCCAAGCCCGGAUAAAAGAGGAGGGGGCGG [A2C U37A]: 0.0604; for AACACUGCCGAUGCCGGUCCCAAGCCCGGAUAAAAGUGGAGGGCGCGG [A10G G44C]: 0.965; for AAAACUGCCAAUGCCGGUCCCAAGCCCGGAUAAAAGUGGAGCGGGCGG [C3A G42C]: 0.0718. AACACGCCCAAUGCCGGUCCCAAGCCCGGAUAAAAGUGGAGGGGGCGG [U6G G7C]: the self-cleavage amounted to 0.873. The same measure for AACACUCCCAAUGCCGGUCCCAAGCCCGGAUAAAUGUGGAGGGGGCGG [G7C A35U]: 0.0701. The same measure for AUCACUGCCAAUGCCGGUCCCAAGCCCGGAUAAAGGUGGAGGGGGCGG [A2U A35G]: 0.207.
